These results are taken from patent US20020123614A1 (published 2002).

Positions count from the first letter of the chain named. Names may count otherwise.

Test [1] deals with T1, recombinant ICAM-2 Fc chimera (UniProt P13598 25-223, limits assumed).
T1 construct: amine-coupled to the BIAcore chip; not shown: Fc part, not described
T1 sequence (looked up): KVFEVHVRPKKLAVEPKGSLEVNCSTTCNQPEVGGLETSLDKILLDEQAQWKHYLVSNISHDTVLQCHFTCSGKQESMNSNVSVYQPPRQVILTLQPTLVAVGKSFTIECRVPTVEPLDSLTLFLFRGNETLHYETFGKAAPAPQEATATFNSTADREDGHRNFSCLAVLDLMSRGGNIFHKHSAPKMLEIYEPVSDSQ
Briefly: BIAcore, 1 mM MgCl2. As for the experimental part: (§1) The recombinant proteins were purified from inclusion bodies by solubilization of inclusion bodies in 6M guanidine HCl and were refolded by dilution in the presence of 0.1 mM Cu²⁺/phenanthrolin to enhance formation of disulfide bonds. Protein was concentrated by ammonium sulfate precipitation, dialyzed, and purified over a monoQ ion-exchange column. […] The recombinant proteins were then purified by gel filtration and concentrated by Centriprep. For BIAcore™ analysis, recombinant ICAM-1, ICAM-2 and ICAM-3 Fc chimeras were immobilized on the BIAcore™ sensor chip by an amine-coupling method. Recombinant αL I-domains were flowed in, and BIAcore™ assays were performed with Tris-buffered saline supplemented with 1 mM MgCl₂ or 2 mM EDTA, at a flow rate of 10 μl/minute at 25° C.

Test [2] concerns the target T2, recombinant ICAM-3 Fc chimera (UniProt P32942 30-485, limits assumed).
T2 construct: amine-coupled to the BIAcore chip; not shown: Fc part, not described
T2 sequence (looked up): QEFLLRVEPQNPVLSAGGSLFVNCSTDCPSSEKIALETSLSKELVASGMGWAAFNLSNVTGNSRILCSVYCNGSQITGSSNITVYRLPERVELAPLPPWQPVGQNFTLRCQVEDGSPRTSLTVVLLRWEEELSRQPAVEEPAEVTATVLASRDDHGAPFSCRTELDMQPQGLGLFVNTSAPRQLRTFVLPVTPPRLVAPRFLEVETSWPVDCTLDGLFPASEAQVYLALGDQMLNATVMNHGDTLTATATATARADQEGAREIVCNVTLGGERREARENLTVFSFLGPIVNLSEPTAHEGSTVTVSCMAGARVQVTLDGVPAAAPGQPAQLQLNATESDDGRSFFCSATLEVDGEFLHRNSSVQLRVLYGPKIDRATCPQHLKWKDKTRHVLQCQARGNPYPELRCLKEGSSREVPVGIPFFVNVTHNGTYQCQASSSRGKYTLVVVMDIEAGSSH
Briefly: BIAcore, 1 mM MgCl2. As for the experimental part: as §1
(In general: Surface plasmon resonance follows binding to a sensor surface in real time, without labels.)

Test [3] deals with T3, recombinant ICAM-1 Fc chimera (UniProt P05362 28-480, limits assumed).
T3 construct: amine-coupled to the BIAcore chip; not shown: Fc part, not described
The experiment in a line: BIAcore; Kon calculated by Koff/KD. The procedure: (§2) Recombinant soluble αL I-domains were expressed in E. coli, refolded and purified. Kinetics of binding of the I-domains to ICAM-1 was measured by BIAcore ™ instruments. Kinetics was analyzed BIAevaluation ™ software. KD was calculated by Scatchard plots using data at steady states. Koff was obtained by curve fining of the dissociation phase using 1:1 binding model. Kon was calculated by Koff/KD.

In test [4] the target is T3, recombinant ICAM-1 Fc chimera. The experiment in a line: BIAcore; dissociation phase, 1:1 model. As for the experimental part:
as §2

Test [5] shares this target. The experiment in a line: BIAcore; Scatchard plots at steady state. As for the experimental part: as §2
Test [6] deals with ICAM-1 (BIAcore, another study; construct not stated) (UniProt P05362 28-480, limits assumed). Briefly: BIAcore, another study.
In the next test the target is T4, murine ICAM-1 (murine, UniProt P13597 28-485, limits assumed).
T4 construct: on EL-4 cells in the aggregation assay
The experiment in a line: BIAcore (not described further).

Test [7] concerns the target T3, recombinant ICAM-1 Fc chimera. The experiment in a line: BIAcore, ICAM Fc chimera immobilized, 1:1 model. The procedure:
as §1

The target of test [8] is T1, recombinant ICAM-2 Fc chimera. The experiment in a line: BIAcore, ICAM Fc chimera immobilized, 1:1 model. The procedure:
as §1

In test [9] the target is T2, recombinant ICAM-3 Fc chimera. Briefly: BIAcore, ICAM Fc chimera immobilized, 1:1 model. The procedure:
as §1

T3 sequence (P05362 28-480 limits assumed, change not shown): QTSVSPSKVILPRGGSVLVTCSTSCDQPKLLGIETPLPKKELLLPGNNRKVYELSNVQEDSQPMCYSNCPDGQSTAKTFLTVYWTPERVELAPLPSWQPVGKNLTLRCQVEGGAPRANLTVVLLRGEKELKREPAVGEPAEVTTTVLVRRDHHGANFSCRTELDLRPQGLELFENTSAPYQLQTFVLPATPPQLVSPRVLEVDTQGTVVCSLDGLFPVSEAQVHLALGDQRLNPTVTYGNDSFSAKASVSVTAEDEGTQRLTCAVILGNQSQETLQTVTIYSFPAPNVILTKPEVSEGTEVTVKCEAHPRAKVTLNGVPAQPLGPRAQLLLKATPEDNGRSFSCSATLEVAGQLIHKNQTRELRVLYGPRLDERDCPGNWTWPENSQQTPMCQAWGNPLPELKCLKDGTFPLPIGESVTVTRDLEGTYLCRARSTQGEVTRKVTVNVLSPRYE
Sequence of ICAM-1 (BIAcore, another study; construct not stated) (P05362 28-480 limits assumed): as the sequence (P05362 28-480 limits assumed, change not shown) above
T4 sequence (P13597 28-485 limits assumed): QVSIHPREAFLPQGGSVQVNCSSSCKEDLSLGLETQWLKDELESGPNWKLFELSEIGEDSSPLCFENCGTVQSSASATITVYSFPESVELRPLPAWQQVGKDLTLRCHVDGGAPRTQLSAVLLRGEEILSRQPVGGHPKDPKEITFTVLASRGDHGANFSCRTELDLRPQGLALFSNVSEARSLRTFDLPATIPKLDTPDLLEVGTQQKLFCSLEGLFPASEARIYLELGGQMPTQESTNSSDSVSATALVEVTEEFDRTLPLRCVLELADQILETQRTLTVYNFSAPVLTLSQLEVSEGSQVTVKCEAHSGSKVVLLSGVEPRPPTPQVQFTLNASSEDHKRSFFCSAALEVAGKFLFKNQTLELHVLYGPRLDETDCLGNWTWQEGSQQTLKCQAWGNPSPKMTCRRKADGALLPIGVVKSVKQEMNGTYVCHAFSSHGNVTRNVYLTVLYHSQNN

B1: recombinant soluble wild-type αL I-domain (G128-Y307), E. coli (receptor)
chain: GNVDLVFLFDGSMSLQPDEFQKILDFMKDVMKKLSNTSYQFAAVQFSTSYKTEFDFSDYVKRKDPDALLKHVKHMLLLTNTFGAINYVATEVFREELGARPDATKVLIIITDGEATDSGNIDAAKDIIRYIIGIGKHFQTKESQETLHKFASKPASEFVKILDTFEKLKDLFTELQKKIY
notes: numbers as printed, probably mature αL numbering; also called soluble wild-type I domain; wild-type I-domain
As to B1, the binding result in [1] and in test [2] was “no binding” throughout.

B2: recombinant soluble αL I-domain L289C/K294C (locked closed) (receptor)
chain: B1 chain with L162C, K167C
As usually defined, the kon is a measure of how fast the partners come together. Broadly, the koff is the first-order rate constant of dissociation. By Kd is commonly meant the equilibrium constant for the complex coming apart. Consider B2, for which, in test [3], the kon is 2110 M⁻¹ s⁻¹. Moreover, the koff in test [4] is 2.84 s⁻¹. For the same molecule, the dissociation constant Kd in test [5] turned out to be 1760 µM.

B3: recombinant soluble αL I-domain L161C/F299C (locked open, intermediate affinity) (receptor)
chain: B1 chain with L34C, F172C
Turning to B3, the kon in [3] is 136000 M⁻¹ s⁻¹. The dissociation rate constant (koff) in test [4] was 0.513 s⁻¹. Besides, the Kd in test [5] amounted to 3.76 µM.

B4: recombinant soluble αL I-domain K160C/F299C (locked open, intermediate affinity) (receptor)
chain: B1 chain with K33C, F172C
For B4, the on-rate constant (kon) in [3] is 153000 M⁻¹ s⁻¹. For the same molecule, in test [4], the koff worked out at 0.67 s⁻¹. Moreover, in [5], the dissociation constant Kd was 4.39 µM.

B5: recombinant soluble αL I-domain stabilized in the open conformation (K287C/K294C), G128-Y307, E. coli (receptor)
chain: B1 chain with K160C, K167C
modifications: introduced disulfide C287-C294
notes: numbers as printed, probably mature αL numbering; also called open I-domain; soluble open I-domain
Consider B5, for which the Kd in [6] came to 0.2 µM; in test [5], 0.18 µM; in test [7], 0.18 µM; in [8] it was 0.513 µM; in test [9], 3.94 µM. For the same molecule, the binding result in the test with murine ICAM-1 is listed as “binds”. In addition, the kon in [3] is 128000 M⁻¹ s⁻¹; in [7], 128000 M⁻¹ s⁻¹; in [8], 23000 M⁻¹ s⁻¹; in test [9] it was 19000 M⁻¹ s⁻¹. For the same molecule, the off-rate (koff) in test [4] came to 0.023 s⁻¹; in test [7] it was 0.023 s⁻¹; in [8] it was 0.0118 s⁻¹; in test [9], 0.0749 s⁻¹.

B6: recombinant soluble αL I-domain E284C/E301C (locked open) (receptor)
chain: B1 chain with E157C, E174C
For B6, the kon in test [3] was 128000 M⁻¹ s⁻¹. In addition, in [4], the koff amounted to 0.0459 s⁻¹. Moreover, the equilibrium dissociation constant (Kd) in [5] came out at 0.36 µM.

B7: recombinant soluble αL I-domain L161C/T300C (locked open, intermediate affinity) (receptor)
chain: B1 chain with L34C, T173C
In the case of B7, the kon in [3] was 135000 M⁻¹ s⁻¹. The koff in test [4] was found to be 0.65 s⁻¹. For the same molecule, the Kd in [5] came out at 4.8 µM.
